The values below come from paper PMC10767740.

For one data set, the system named is TDP-43 monomer (TDP-M). Description: SPR. To be noted: protein immobilized on CM5; SPR Biacore 8K, CM5 chip, protein amine-coupled (30 ug/mL in NaAc pH 4.0); TG12 7.8-8000 nM in 1x PBS + 0.02% Tween-20; 120 s association and dissociation; 1:1 …. On the technique in general: In SPR one partner is held on a chip, and binding of the other changes the refractive index at the surface.

In data set [1] the test system is TDP-43 native oligomer (NA-O). In words: SPR. To be noted: protein immobilized on CM5, SPR Biacore 8K, CM5 chip, protein amine-coupled (30 ug/mL in NaAc pH 4.0), TG12 7.8-8000 nM in 1x PBS + 0.02% Tween-20, 120 s association and dissociation, 1:1 ….

Sequence of TDP-43 monomer (TDP-M) (chain, as listed by the source): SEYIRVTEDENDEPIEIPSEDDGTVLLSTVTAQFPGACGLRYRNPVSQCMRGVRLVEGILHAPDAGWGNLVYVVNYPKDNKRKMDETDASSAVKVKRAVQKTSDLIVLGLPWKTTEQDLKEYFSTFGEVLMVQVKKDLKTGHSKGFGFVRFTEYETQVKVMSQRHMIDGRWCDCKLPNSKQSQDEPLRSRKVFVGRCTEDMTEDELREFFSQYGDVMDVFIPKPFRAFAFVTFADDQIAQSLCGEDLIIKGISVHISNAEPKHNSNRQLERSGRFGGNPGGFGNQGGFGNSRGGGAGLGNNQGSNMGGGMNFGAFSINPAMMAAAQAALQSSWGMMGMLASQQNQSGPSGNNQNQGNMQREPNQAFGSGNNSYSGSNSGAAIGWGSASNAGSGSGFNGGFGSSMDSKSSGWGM

Take TG12: the dissociation constant Kd with TDP-43 monomer (TDP-M) was found to be 155 nM; in data set [1] it was 125 nM.

Usually Kd stands for the equilibrium constant for the complex coming apart.
